Source: article PMC5910394, “Mechanically interlocked functionalization of monoclonal antibodies” (Nature Communications, 2018)

Experiments:
[1] = target: long meditope ((Ac)…); assay: SPR; conditions: 37 °C (red point beside label LE); n = 1; parent: est. 5.3; read off a plot
[2] = target: anti-HER2 memAb (trastuzumab-based, meditope-enabled anti-HER2 antibody); assay: SPR; memAb variant amine-coupled to a CM5 chip, peptide flowed over at 30 uL/min, HBS-EP+, 25 °C, Biacore T100, 1:1 binding model
[3] = target: memAb anti-HER2 (meditope-enabled, trastuzumab-based anti-HER2 antibody); assay: SPR; memAb anti-HER2 amine-coupled on a CM5 chip, meditope flowed over at 30 uL/min, HBS-EP+, 25 °C, 1:1 model, global fit, n=1 (authors estimate the error at 10-50%)
[4] = target: Ile83Glu anti-HER2 memAb; assay: SPR; memAb variant amine-coupled to a CM5 chip, peptide flowed over at 30 uL/min, HBS-EP+, 37 °C, Biacore T100, 1:1 binding model
Ile83Glu anti-HER2 memAb, sequence (heavy, as listed by the source, chain 1 of 2): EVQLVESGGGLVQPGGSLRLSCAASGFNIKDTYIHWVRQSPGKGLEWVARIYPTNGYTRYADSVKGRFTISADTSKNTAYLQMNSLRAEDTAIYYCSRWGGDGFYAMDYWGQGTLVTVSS
Ile83Glu anti-HER2 memAb, sequence (light, as listed by the source, chain 2 of 2): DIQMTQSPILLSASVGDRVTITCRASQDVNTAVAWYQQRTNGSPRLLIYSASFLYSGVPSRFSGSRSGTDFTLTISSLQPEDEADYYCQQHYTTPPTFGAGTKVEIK

memAb anti-HER2 (meditope-enabled, trastuzumab-based anti-HER2 antibody), sequence (heavy, as listed by the source, chain 1 of 2): as the sequence (heavy, as listed by the source, chain 1 of 2) above
memAb anti-HER2 (meditope-enabled, trastuzumab-based anti-HER2 antibody), sequence (light, as listed by the source, chain 2 of 2): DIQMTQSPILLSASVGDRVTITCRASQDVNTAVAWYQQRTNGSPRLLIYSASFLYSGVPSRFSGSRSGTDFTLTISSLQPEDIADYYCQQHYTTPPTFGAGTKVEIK
anti-HER2 memAb (trastuzumab-based, meditope-enabled anti-HER2 antibody), sequence (heavy, as listed by the source, chain 1 of 2): as the sequence (heavy, as listed by the source, chain 1 of 2) above

Substance: anti-HER2 memAb (trastuzumab-based, meditope-enabled anti-HER2 antibody) LC:Ile83Glu
- kon (log10(M-1 s-1)) [1]: 5.6

Substance: meditope with Leu5 substituted by L-diphenylalanine (peptide)
- Kd [2]: 0.04 µM

Substance: CQFDA(Ph)2STRRLKC meditope (peptide)
- koff [3]: 0.008 s⁻¹
- kon [3]: 200000 M⁻¹ s⁻¹

Substance: 5-diphenylalanine-8-Arg-(PEG)2-azido-meditope ((Ac)CQFDA(Ph)2STRXLRCGGSK, X = arginine-(PEG)2-azide) (peptide)
- Kd [4]: 0.0021 µM
- half-life [4]: 1.38 h
